Measurements reported in patent US20110239311A1 (MEDIZINISCHE UNIVERSITAT INNSBRUCK, published 2011).

Columns and labels:
[1] = molecular target: T1, endogenous PKCalpha from Jurkat T cell lysate (human, UniProt P17252 2-672); assay: GST pull down from Jurkat T cell lysate, immunoblot
T1 construct: also called PKCα
Protocol: (§1) GST pull down assay: 1×10⁷ Jurkat T cells were lysed in 1 ml lysis buffer (25 mM MES pH 6.5, 5 mM NaF, 1 mM Na₃VO₄, 2 mM EDTA, 150 mM NaCl, 0.5% TritonX-100, 50 μg/ml aprotinin and leupeptin). Lysates were precleared for 30 min at 4° C. Thereafter incubation with purified recombinant GST-NR2F6 fusion proteins for 3 h at 4° C., 5× washing in lysis buffer, SDS-PAGE under reducing conditions on Bis/Tris-buffered gels (Novex, San Diego, Calif.) was performed. Proteins were transferred onto a polyvinyl-difluoridon (PVDF) membrane (Millipore, Bedford, Mass.) by semi-dry blotting (90 mA, 80 min, 4° C.). […] Peroxidase-conjugated antibodies (Pierce, Rockford, Ill.) served as secondary reagent (1:5,000). For antigen detection enhanced chemiluminescence was used (Super Signal, Pierce, Rockford, Ill.).

[2] = molecular target: T2, endogenous PKCtheta from Jurkat T cell lysate (human, UniProt Q04759 1-706); assay: as above
T2 construct: also called PKCθ
T2 sequence (Q04759 whole entry): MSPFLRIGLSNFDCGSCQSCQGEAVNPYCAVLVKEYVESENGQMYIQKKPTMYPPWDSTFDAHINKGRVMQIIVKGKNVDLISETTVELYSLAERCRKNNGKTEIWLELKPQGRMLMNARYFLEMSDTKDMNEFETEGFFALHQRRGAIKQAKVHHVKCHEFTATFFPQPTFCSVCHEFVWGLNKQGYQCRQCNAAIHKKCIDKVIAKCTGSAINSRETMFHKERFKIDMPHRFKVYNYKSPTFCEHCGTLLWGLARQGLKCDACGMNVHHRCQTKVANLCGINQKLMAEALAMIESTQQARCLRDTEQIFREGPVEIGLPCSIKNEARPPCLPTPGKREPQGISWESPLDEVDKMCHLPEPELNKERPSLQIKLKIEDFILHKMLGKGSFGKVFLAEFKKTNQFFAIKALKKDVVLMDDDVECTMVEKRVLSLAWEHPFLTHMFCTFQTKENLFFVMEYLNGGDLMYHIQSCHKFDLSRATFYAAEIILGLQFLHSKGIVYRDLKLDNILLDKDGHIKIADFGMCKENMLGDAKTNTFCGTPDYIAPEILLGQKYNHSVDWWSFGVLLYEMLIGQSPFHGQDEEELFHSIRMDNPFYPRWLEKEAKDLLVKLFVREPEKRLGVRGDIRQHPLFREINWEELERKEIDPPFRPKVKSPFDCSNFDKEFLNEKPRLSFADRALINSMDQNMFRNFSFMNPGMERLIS
Protocol: as §1

B1: GST-NR2F6 fusion protein, wild-type, full-length (purified recombinant) (other)
chain: MAMVTGGWGGPGGDTNGVDKAGGYPRAAEDDSASPPGAASDAEPGDEERPGLQVDCVVCGDKSSGKHYGVFTCEGCKSFFKRSIRRNLSYTCRSNRDCQIDQHHRNQCQYCRLKKCFRVGMRKEAVQRGRIPHSLPGAVAASSGSPPGSALAAVASGGDLFPGQPVSELIAQLLRAEPYPAAAGRFGAGGGAAGAVLGIDNVCELAARLLFSTVEWARHAPFFPELPVADQVALLRLSWSELFVLNAAQAALPLHTAPLLAAAGLHAAPMAAERAVAFMDQVRAFQEQVDKLGRLQVDSAEYGCLKAIALFTPDACGLSDPAHVESLQEKAQVALTEYVRAQYPSQPQRFGRLLLRLPALRAVPASLISQLFFMRLVGKTPIETLIRDMLLSGSTFNWPYGSGQ
notes: GST is placed at the N-terminus from the name 'GST-NR2F6' only; also called recombinant NR2F6; not shown: glutathione S-transferase (GST) fusion tag
binding result [1]: binds
binding result [2]: binds
